Article PMC6563103 (Hepatology (Baltimore, Md.), 2019)

Target: T1, glutathione S-transferase (GST)-CGI-58 (UniProt Q8WTS1 1-349)
T1 sequence (looked up): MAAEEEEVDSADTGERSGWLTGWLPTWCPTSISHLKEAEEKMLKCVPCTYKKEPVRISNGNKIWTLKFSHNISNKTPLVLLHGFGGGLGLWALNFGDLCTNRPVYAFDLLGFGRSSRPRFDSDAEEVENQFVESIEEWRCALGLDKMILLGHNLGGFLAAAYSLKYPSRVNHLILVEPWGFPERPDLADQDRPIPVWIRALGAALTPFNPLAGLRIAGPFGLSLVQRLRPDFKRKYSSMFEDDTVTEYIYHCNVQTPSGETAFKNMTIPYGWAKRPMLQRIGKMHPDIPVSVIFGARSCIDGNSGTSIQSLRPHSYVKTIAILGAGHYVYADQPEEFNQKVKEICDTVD
Assay: pull-down

B1: recombinant PNPLA3(148M), deca-histidine and Flag fusion protein (enzyme, UniProt Q9NST1 1-481, looked up)
chain: MYDAERGWSLSFAGCGFLGFYHVGATRCLSEHAPHLLRDARMLFGASAGALHCVGVLSGIPLEQTLQVLSDLVRKARSRNIGIFHPSFNLSKFLRQGLCKCLPANVHQLISGKIGISLTRVSDGENVLVSDFRSKDEVVDALVCSCFMPFYSGLIPPSFRGVRYVDGGVSDNVPFIDAKTTITVSPFYGEYDICPKVKSTNFLHVDITKLSLRLCTGNLYLLSRAFVPPDLKVLGEICLRGYLDAFRFLEEKGICNRPQPGLKSSSEGMDPEVAMPSWANMSLDSSPESAALAVRLEGDELLDHLRLSILPWDESILDTLSPRLATALSEEMKDKGGYMSKICNLLPIRIMSYVMLPCTLPVESAIAIVQRLVTWLPDMPDDVLWLQWVTSQVFTRVLMCLLPASRSQMPVSSQQASPCTPEQDWPCWTPCSPKGCPAETKAEATPRSILRSSLNFFLGNKVPAGAEGLSTFPSFSLEKSL
For B1, the “molar ratio of PNPLA3 to CGI-58 in the precipitates” value was ~0.14 mol PNPLA3 per mol CGI-58.
